Results reported in patent US20240150440A1 (LUMEN BIOSCIENCE, published 2024).
Like-named read-outs stand apart in the source and are kept apart here.

What was measured:
[1] = target: T1, recombinant SARS-CoV-2 RBD with C-terminal AviTag (SARS-CoV-2, UniProt P0DTC2 319-541)
[2] = target: SARS-COV-2 Wuhan Reference RBD (SARS-CoV-2, UniProt P0DTC2 319-541); experiment: ELISA, RBD coated
[3] = target: T1, recombinant SARS-CoV-2 RBD with …; experiment: ELISA, competition with coated ACE2-Fc for RBD [Cont. 9]
[4] = target: T1, recombinant SARS-CoV-2 RBD with …; remark: listed apart in the source

Row | Binder | EC50 [2] | IC50 [3] | also measured
1 | MBP-5HVZ-R5C-E1-H6 (VHH, not shown: large carriers; small tags and cut ends) VHH: QVQLVESGGGLVQPGGSLRLSCAASGYIFSATVMHWFRQAPGKQREGVASINSTGSSQYADSVKGRFTISRDNAKNTVYLQMNSLKPEDTAVYYCAADGADVVYGNRYWGQGTQVTVSS | – | – | IC50 [1]: 4.5 nM; Kd [1]: 6.13 nM
2 | PP930 MBP-5HVZ-R2b-D4-H6 (VHH, Form: Dimer) VHH: QVQLVESGGGLVQPGGSLRLSCAASGSYASIASMHWFRQAPGKQREFVAGLTSGGSRIYGDSVKGRFTISRDNAKNTVYLQMNSLKPEDTAVYYCTALILHYAGMYDYWGQGTQVTVSS | 3.18 nM | – | –
3 | PP1108 MBP-5HVZ-PAPA-RN-23-H6 (VHH, Form: Dimer) VHH: QVQLVESGGGLVQPGGSLRLSCAASGGEKSISAAHWYRQAPGKEREFVAAITAASTTSYADSVKGRFTISRDNAKNTVYLQMNSLKPEDTAVYYCTAVLYDSYDYWGQGTQVTVSS | 2.61 nM | 380 nM | –
4 | PP1154 MBP-5HVZ-PAPA-R5d-G1-H6 (VHH, Form: Dimer) VHH: QVQLVESGGGLVQPGGSLRLSCAASGSIFGINDVHWFRQAPGKEREFVATITNGLSARYKDSVKGRFTISRDNAKNTVYLQMNSLKPEDTAVYYCAAQVYITTYELYDYWGQGTQVTVSS | 2.42 nM | – | –
5 | PP1099 MBP-5HVZ-PAPA-RN-12-H6 (VHH, Form: Dimer) VHH: QVQLVESGGGLVQPGGSLRLSCAASGSSFEGNAVHWFRQAPGKNREFVATITTSTSYYYADSVKGRFTISRDNAKNTVYLQMNSLKPEDTAVYYCAARLKDRGPQSEYDYWGQGTQVTVSS | 4.24 nM | – | –
6 | PP1113 MBP-5HVZ-PAPA-RN-29-H6 (VHH, Form: Dimer) VHH: QVQLVESGGGLVQPGGSLRLSCAASGYILSENLTAWFRQAPGKAREVVATVTSGDYTNYDDSVKGRFTISRDNAKNTVYLQMNSLKPEDTAVYYCAAGTSDWEVKWSHWGQGTQVTVSS | 0.34 nM | 4.9 nM | –
7 | MBP-5HVZ-R5A-D4-H6 (VHH, not shown: large carriers; small tags and cut ends) VHH: QVQLVESGGGLVQPGGSLRLSCAASGSAMMINRTHWFRQAPGKEREGVAGITWQGSTYYADSVKGRFTISRDNAKNTVYLQMNSLKPEDTAVYYCNAVAPVHENENYWGQGTQVTVSS | – | – | IC50 [4]: 5.7 nM; Kd [4]: 21.1 nM
8 | PP1110 MBP-5HVZ-PAPA-RN-26-H6 (VHH, Form: Dimer) VHH: QVQLVESGGGLVQPGGSLRLSCAASGSISSINSMHWYRQAPGKEREWVAAVSSYGSDYYADSVKGRFTISRDNAKNTVYLQMNSLKPEDTAVYYCAARTVTGFTYGDYWGQGTQVTVSS | 3.5 nM | 156 nM | –
9 | MBP-R5A-A5-H6 (VHH, not shown: large carriers; small tags and cut ends) VHH: QVQLVESGGGLVQPGGSLRLSCAASGSAFATNGLHWFRQAPGKQREFVAGITSNGSINYKDSVKGRFTISRDNAKNTVYLQMNSLKPEDTAVYYCTALLMSYGGGEEYDYWGQGTQVTVSS | – | – | Kd [4]: ~920 nM
10 | MBP-5HVZ-R5A-A5-H6 (VHH, not shown: large carriers; small tags and cut ends) VHH: QVQLVESGGGLVQPGGSLRLSCAASGSAFATNGLHWFRQAPGKQREFVAGITSNGSINYKDSVKGRFTISRDNAKNTVYLQMNSLKPEDTAVYYCTALLMSYGGGEEYDYWGQGTQVTVSS | – | – | IC50 [4]: 4.4 nM; Kd [4]: 24.7 nM
11 | MBP-5HVZ-R5A-B3-H6 (VHH, not shown: large carriers; small tags and cut ends) VHH: QVQLVESGGGLVQPGGSLRLSCAASGQLDRSNAMAWFRQAPGKGREWVASITSGASTQYADSVKGRFTISRDNAKNTVYLQMNSLKPEDTAVYYCAADRYRAIQRTQYSWGQGTQVTVSS | – | – | IC50 [4]: 35.9 nM; Kd [4]: ~1200 nM
12 | MBP-R5C-E3-H6 (VHH, not shown: large carriers; small tags and cut ends) VHH: QVQLVESGGGLVQPGGSLRLSCAASGSFFSINAVHWFRQAPGKEREFVASISVGDSRSYRDSVKGRFTISRDNAKNTVYLQMNSLKPEDTAVYYCAAQIYITTYELYDYWGQGTQVTVSS | – | – | Kd [1]: ~1370 nM
13 | MBP-5HVZ-R5C-E3-H6 (VHH, not shown: large carriers; small tags and cut ends) VHH: QVQLVESGGGLVQPGGSLRLSCAASGSFFSINAVHWFRQAPGKEREFVASISVGDSRSYRDSVKGRFTISRDNAKNTVYLQMNSLKPEDTAVYYCAAQIYITTYELYDYWGQGTQVTVSS | – | – | IC50 [1]: 9.2 nM
14 | PP1101 MBP-5HVZ-PAPA-RN-16-H6 (VHH, Form: Dimer) VHH: QVQLVESGGGLVQPGGSLRLSCAASGADFSSNAMHWFRQAPGKAREFVASIDSDKSGYYADSVKGRFTISRDNAKNTVYLQMNSLKPEDTAVYYCNAYSGTDNYGYDYWGQGTQVTVSS | 1.56 nM | 13.9 nM | –
15 | MBP-5HVZ-R5A-D6-H6 (VHH, not shown: large carriers; small tags and cut ends) VHH: QVQLVESGGGLVQPGGSLRLSCAASGNDWYINSAHWYRQAPGKEREFVASVSRGGSNNYRDSVKGRFTISRDNAKNTVYLQMNSLKPEDTAVYYCAALLETSSGDYTYWGQGTQVTVSS | – | – | IC50 [4]: 223 nM; Kd [4]: 35 nM
16 | MBP-5HVZ-R2E-F4-H6 (VHH, not shown: large carriers; small tags and cut ends) VHH: QVQLVESGGGLVQPGGSLRLSCAASGETFSSNAMHWFRQAPGKGREFVAAITSGGNDNYSDSVKGRFTISRDNAKNTVYLQMNSLKPEDTAVYYCNAPATEDTSHYPRNYWGQGTQVTVSS | – | – | IC50 [4]: 6.3 nM; Kd [4]: 11.4 nM

Row | Binder | EC50 [2] | IC50 [3] | also measured
17 | PP1106 MBP-5HVZ-PAPA-RN-21-H6 (VHH, Form: Dimer) VHH: QVQLVESGGGLVQPGGSLRLSCAASGLQTSDNAMHWFRQAPGKNRELVAGLTSGTSRNYGDSVKGRFTISRDNAKNTVYLQMNSLKPEDTAVYYCAAFPDVGDASSIGFVYWGQGTQVTVSS | 2.52 nM | 9.7 nM | –
18 | PP1102 MBP-5HVZ-PAPA-RN-17-H6 (VHH, Form: Dimer) VHH: QVQLVESGGGLVQPGGSLRLSCAASGSMYSRAVMHWFRQAPGKEREGVASIGRTGDSYYADSVKGRFTISRDNAKNTVYLQMNSLKPEDTAVYYCAADNLDVVYGNRYWGQGTQVTVSS | 0.97 nM | 2.4 nM | –
19 | PP1114 MBP-5HVZ-PAPA-RN-30-H6 (VHH, Form: Dimer) VHH: QVQLVESGGGLVQPGGSLRLSCAASGIPASYLNMHWFRQAPGKQREWVAGAGGTNSNYYQDSVKGRFTISRDNAKNTVYLQMNSLKPEDTAVYYCAALDGAESYDYVYPVWGQGTQVTVSS | 1.14 nM | 3.4 nM | –
20 | PP1109 MBP-5HVZ-PAPA-RN-25-H6 (VHH, Form: Dimer) VHH: QVQLVESGGGLVQPGGSLRLSCAASGEDYSYNAAHWFRQAPGKEREWVAAINSGGGTYYADSVKGRFTISRDNAKNTVYLQMNSLKPEDTAVYYCAYLGALDRDGYDAWGQGTQVTVSS | 1.06 nM | 29.6 nM | –
21 | PP1103 MBP-5HVZ-PAPA-RN-18-H6 (VHH, Form: Dimer) VHH: QVQLVESGGGLVQPGGSLRLSCAASGYYFQIVAMHWYRQAPGKEREGVAGITSTGSTYYGDSVKGRFTISRDNAKNTVYLQMNSLKPEDTAVYYCNAVSTDAQGAAEYWGQGTQVTVSS | 2.4 nM | 53.3 nM | –
22 | MBP-5HVZ-R5A-A1-H6 (VHH, not shown: large carriers; small tags and cut ends) VHH: QVQLVESGGGLVQPGGSLRLSCAASGAELSYTAIHWFRQAPGKQREFVATINSGGSSYYADSVKGRFTISRDNAKNTVYLQMNSLKPEDTAVYYCTALLDSTYDYWGQGTQVTVSS | – | – | IC50 [4]: 3.4 nM; Kd [4]: 29 nM
23 | PP1112 MBP-5HVZ-PAPA-RN-28-H6 (VHH, Form: Dimer) VHH: QVQLVESGGGLVQPGGSLRLSCAASGSQFSHNLMSWFRQAPGKQREFVAAITSFGSTGYADSVKGRFTISRDNAKNTVYLQMNSLKPEDTAVYYCAALSSEDTSHYPRNYWGQGTQVTVSS | 1.36 nM | 10.5 nM | –
24 | PP1153 MBP-5HVZ-PAPA-R5d-D4-H6 (VHH, Form: Dimer) VHH: QVQLVESGGGLVQPGGSLRLSCAASGSDFTINAMHWFRQAPGKQREFVATITSTSSTAYRDSVKGRFTISRDNAKNTVYLQMNSLKPEDTAVYYCAAFAVRDADTAGWTARDYWGQGTQVTVSS | 1.23 nM | – | –
25 | PP912 MBP-5HVZ-S2b-G8-H6 (VHH, Form: Dimer) VHH: QVQLVESGGGLVQPGGSLRLSCAASGSIQSYEAMHWFRQAPGKAREWVAVITWGDSTQYGDSVKGRFTISRDNAKNTVYLQMNSLKPEDTAVYYCAADVRQGYSSWGQGTQVTVSS | 2.33 nM | – | –
26 | R5A-C5 (competition ELISA sample) (VHH) VHH: QVQLVESGGGLVQPGGSLRLSCAASGDIFSINALHWFRQAPGKQREEVAAITSGGSTGYADSVKGRFTISRDNAKNTVYLQMNSLKPEDTAVYYCAAQQARGGLDSDYWGQGTQVTVSS | – | – | IC50 [4]: 1.4 nM; Kd [4]: 7.04 nM
27 | PP1115 MBP-5HVZ-PAPA-RN-31-H6 (VHH, Form: Dimer) VHH: QVQLVESGGGLVQPGGSLRLSCAASGSTGSDYAMHWFRQAPGKDREWVAGISSYGSDSYGDSVKGRFTISRDNAKNTVYLQMNSLKPEDTAVYYCAALQASAGAGYYYDYWGQGTQVTVSS | 4.9 nM | 11.6 nM | –
28 | PP1107 MBP-5HVZ-PAPA-RN-22-H6 (VHH, Form: Dimer) VHH: QVQLVESGGGLVQPGGSLRLSCAASGSISEINLLHWFRQAPGKQREWVATMTSGGSTDYADSVKGRFTISRDNAKNTVYLQMNSLKPEDTAVYYCAADEFTKYGHGRYWGQGTQVTVSS | 0.27 nM | 3.9 nM | –
29 | PP1105 MBP-5HVZ-PAPA-RN-20-H6 (VHH, Form: Dimer) VHH: QVQLVESGGGLVQPGGSLRLSCAASGNYFEINKMHWFRQAPGKQREFVATIGSGGSTAYADSVKGRFTISRDNAKNTVYLQMNSLKPEDTAVYYCNALIYLADRRDGYYSYDYWGQGTQVTVSS | 1.24 nM | 7.2 nM | –
30 | PP1111 MBP-5HVZ-PAPA-RN-27-H6 (VHH, Form: Dimer) VHH: QVQLVESGGGLVQPGGSLRLSCAASGPQFSSNAVSWFRQAPGKEREWVAGITSGGSTDYADSVKGRFTISRDNAKNTVYLQMNSLKPEDTAVYYCTAPSVSDADRRTRDYWGQGTQVTVSS | 0.33 nM | 9.4 nM | –
31 | PP1104 MBP-5HVZ-PAPA-RN-19-H6 (VHH, Form: Dimer) VHH: QVQLVESGGGLVQPGGSLRLSCAASGIDDSIGAMHWFRQAPGKGREFVAALSGTGTTSYADSVKGRFTISRDNAKNTVYLQMNSLKPEDTAVYYCAAAFPAGGDYWGQGTQVTVSS | 1.21 nM | 3.5 nM | –
